Results as given in patent US20110039758A1.
Values joined by “and” are separate entries in the source; they are usually repeats but may differ in a detail not shown here. Equal entries are not always repeated. Ends that are not written are not given here.

Columns and labels:
Assay in all cases: G assay
[1] = target: GST-NOS1 (nNOS) PDZ domain (human)
[2] = target: GST-PSD95 PDZ domain 3 (human)
[3] = target: GST-PSD95 PDZ domain 1 (human)
[4] = target: GST-PSD95 PDZ domain 2 (human)

| Binder | Average OD [1] | Average OD [2] | Average OD [3] | Average OD [4] |
| --- | --- | --- | --- | --- |
| KTMPAAMYRLLTAQEQPVYI (modifications not checked) [MINT-1 PL peptide] | 4 OD and 3.76 OD | – | – | – |
| VGTLLLERVIFPSVKIATLV (modifications not checked) [AdenoE4 typ9 PL peptide] | 3.64 OD and 2.73 OD and 4 OD | – | – | – |
| QDFRRAFRRILARPWTQTAW (modifications not checked) [a-2B Adrenergic receptor PL peptide] | 3.54 OD and 2.52 OD | 3.74 OD and 2.98 OD | 1.59 OD and 0.87 OD | – |
| DFRPSFKHILFRRARRGFRQ (modifications not checked) [alpha-2C Adrenergic receptor PL peptide] | 3.02 OD and 2.09 OD | 1.72 OD and 1.19 OD | 2.05 OD and 1.26 OD | – |
| VHKVRNKFKAKCSLCRLYII (modifications not checked) [HPV-E6 #63 PL peptide] | 2.55 OD and 4 OD | 4 OD | 4 OD and 2.67 OD | 4 OD and 2.62 OD |
| ELLQFCRTPNPALKNGQYWV (modifications not checked) [CSPG4 (chondroitin sulfae proteoglycan 4, melanoma-associated) PL peptide] | 2.43 OD and 1.27 OD | – | – | – |
| HSCCNRARQERLQRRRETQV (modifications not checked) [HPV-E6 #18 PL peptide] | 2.14 OD | – | – | – |
| PYSELNYETSHYPASPDSWV (modifications not checked) [catenin-delta 2 PL peptide] | 2.1 OD | – | 1.18 OD | – |
| SSKSKSSEESQTFFGLYKL (modifications not checked) [Fas Ligand PL peptide] | 1.99 OD and 1.93 OD | 1.07 OD | 1.23 OD | – |
| RIAYSLLGLKDQVNTVGIPI (modifications not checked) [ephrin A2 PL peptide] | 1.83 OD and 4 OD | – | – | – |
| RELVDRGEVRQFTLRHWLKV (modifications not checked) [Dopamine transporter PL peptide] | 1.38 OD and 1.27 OD and 1.1 OD | – | – | – |
| HHLVAQRDIRQFQLQHWLAI (modifications not checked) [noradrenaline transporter PL peptide] | 1.08 OD | 0.82 OD and 0.7 OD | – | – |
| LAVLAYSITLVMLWSIWQYA (modifications not checked) [Serotonin receptor 3a PL peptide] | 1.02 OD | – | – | – |
| KAGYRAPRSYPKSNSSKEYV (modifications not checked) [claudin 7 PL peptide] | 1.01 OD and 0.93 OD | 0.92 OD and 0.86 OD | 1.28 OD and 1.08 OD | – |
| HDFRRAFKKILARGDRKRIV (modifications not checked) [alpha-2A Adrenergic receptor PL peptide] | 0.96 OD and 0.73 OD | – | – | – |
| SYPTPRPYPKPAPSSGKDYV (modifications not checked) [claudin 1 PL peptide] | 0.9 OD | 0.85 OD | 0.95 OD | – |
| VPSDNIDSQGRNASINDSLL (modifications not checked) [beta-2 Adrenergic Receptor PL peptide] | 0.85 OD | – | – | – |
| AWDDSARAAGGQGLHVTAL (modifications not checked) [LPAP PL peptide] | 0.77 OD | – | – | – |
| VDPNSPAAKKKYVSYNNLVI (modifications not checked) [GLUR7 (metabotropic glutamate receptor) PL peptide] | 0.75 OD and 0.64 OD and 0.59 OD | 0.82 OD | 0.85 OD | – |
| GRWTGRAMSAWKPTRRETEV (modifications not checked) [HPV E6 #35 (cysteine-free) PL peptide] | 0.74 OD and 0.62 OD | 4 OD | 4 OD and 3.08 OD | 2.82 OD |

| Binder | Average OD [1] | Average OD [2] | Average OD [3] | Average OD [4] |
| --- | --- | --- | --- | --- |
| PIPAGGCTFSGIFPTLTSPL (modifications not checked) [KIAA 1481 PL peptide] | 0.71 OD | – | – | – |
| PGQPPKVKSEFNSYSLTGYV (modifications not checked) [claudin 2 PL peptide] | 0.69 OD | 0.79 OD | 1.03 OD and 0.85 OD | – |
| ALVLIAFCIIRRRPSAYQAL (modifications not checked) [CD68 PL peptide] | 0.67 OD | – | – | – |
| TTNNNPNSAVNIKKIFTDV (modifications not checked) [KV1.3 PL peptide] | 0.67 OD | 1 OD | 2.28 OD and 1.12 OD | 1.06 OD |
| SFTSILTCHQRRTQRKETVA (modifications not checked) [GluR5-2 (rat) PL peptide] | 0.65 OD | 4 OD | 3.12 OD and 2.26 OD | – |
| SPQPDSTDNDDYDDISAA (modifications not checked) [CD6 PL peptide] | 0.59 OD | – | – | – |
| SSPDSSYQGKGFVMSRAMYV (modifications not checked) [Nectin 2 PL peptide] | 0.54 OD | 0.91 OD | 1.01 OD | – |
| LGYSIPSRSGASGLDKRDYV (modifications not checked) [claudin 9 PL peptide] | 0.51 OD | – | 0.82 OD | – |
| SSSQSLESDGSYQKPSYIL (modifications not checked) [CD62E PL peptide] | 0.5 OD | – | – | – |
| TQGFPGPATWRRISSLESEV (modifications not checked) [NMDA Glutamate Receptor 2C (cysteine-free) C-terminal 20mer peptide] | 0.49 OD | 1.46 OD and 1.17 OD | – | 3.56 OD and 2.89 OD and 2.07 OD |
| LNSCSNRRVYKKMPSIESDV (modifications not checked) [NMDAR2A C-terminal 20mer peptide] | – | – | 4.07 OD and 4 OD | – |
| YGRKKRRQRRRKLSSIESDV (not fully specified) [[…] (Tat transporter fused to the C-terminal 9 amino acids of NMDA Receptor 2B)] | – | – | 3.87 OD and 2.13 OD and 1.4 OD | 4.06 OD and 3.53 OD and 3.1 OD |
| TGSALQAWRHTSRQATESTV (modifications not checked) | – | 0.78 OD | 3.86 OD | – |
| DGGARTEDEVQSYPSKHDYV (modifications not checked) | – | 1.05 OD | 1.25 OD | – |
| GGDLGTRRGSAHFSSLESEV (modifications not checked) [NMDAR2D C-terminal 20mer peptide] | – | – | 0.86 OD and 0.77 OD | 3.11 OD and 2.22 OD and 1.31 OD |
| LNSSSNRRVYKKMPSIESAV (modifications not checked) | – | – | – | 3.37 OD and 2.67 OD and 2.29 OD |
| QISPGGLEPPSEKHFRETEV (modifications not checked) [20 C-terminal amino acids from TAX] | – | – | – | 2.39 OD |
| KDITSDSENSNFRNEIQSLV (modifications not checked) | – | – | – | 1.35 OD |
| RSGATIPLVGQDIIDLQTEV (modifications not checked) | – | – | – | 1.23 OD |
